Kd data for one molecule are collected here from PMC2770678 (Nucleic Acids Research, 2009).

One may read the Kd as the concentration at which binding is half-saturated.

The target in this assay is T1, P. furiosus AP endonuclease (PfuAPE), PF0258 gene product, His-tagged recombinant (Pyrococcus furiosus, UniProt Q8U437 1-281).
T1 sequence (looked up): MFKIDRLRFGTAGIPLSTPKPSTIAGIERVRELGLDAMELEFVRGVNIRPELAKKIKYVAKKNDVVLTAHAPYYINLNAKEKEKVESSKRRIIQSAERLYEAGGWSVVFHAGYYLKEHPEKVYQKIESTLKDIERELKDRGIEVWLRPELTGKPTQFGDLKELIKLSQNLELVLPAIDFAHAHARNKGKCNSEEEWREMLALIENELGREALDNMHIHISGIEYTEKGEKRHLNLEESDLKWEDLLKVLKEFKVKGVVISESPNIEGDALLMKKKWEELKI
Kind of assay: SPR.

B1: P. furiosus proliferating cell nuclear antigen (PfuPCNA), recombinant wild type (natural protein, Pyrococcus furiosus, UniProt O73947 1-249, looked up)
chain: MPFEIVFEGAKEFAQLIDTASKLIDEAAFKVTEDGISMRAMDPSRVVLIDLNLPSSIFSKYEVVEPETIGVNMDHLKKILKRGKAKDTLILKKGEENFLEITIQGTATRTFRVPLIDVEEMEVDLPELPFTAKVVVLGEVLKDAVKDASLVSDSIKFIARENEFIMKAEGETQEVEIKLTLEDEGLLDIEVQEETKSAYGVSYLSDMVKGLGKADEVTIKFGNEMPMQMEYYIRDEGRLTFLLAPRVEE
In the case of B1, the Kd was 1 µM.
